Test [1] deals with T1, EWSR1/WT1 fusion protein (junction of EWS and WT1) peptide on HLA-A*03 (human).
T1 peptide: SSYGQQSEK
The test can be described thus: multimer staining.

The target in test [2] is T1, EWSR1/WT1 fusion protein (junction of …). The experiment in a line: cytokine release.
The target in test [3] is T2, EWSR1/WT1 fusion protein (junction of EWS and WT1) peptide on HLA-A*11 (human).
T2 peptide: SSYGQQSEK
The test can be described thus: cytokine release.

The results in this text go back to US20250262244A1 (published 2025).

B1: TCR12 (TCR, V domains shown)
Valpha: AQKVTQAQTEISVVEKEDVTLDCVYETRDTTYYLFWYKQPPSGELVFLIRRNSFDEQNEISGRYSWNFQKSTSSFNFTITASQVVDSAVYFCALSEMQGGSEKLVFGKGTKLTVNP
Vbeta: DSGVTQTPKHLITATGQRVTLRCSPRSGDLSVYWYQQSLDQGLQFLIHYYNGEERAKGNILERFSAQQFPDLHSELNLSSLELGDSALYFCASSTSSGSPDTQYFGPGTRLTVL
Turning to B1, the binding result in test [1] was “recognises”.

B2: TCR15 (TCR, V domains shown)
Valpha: QKEVEQDPGPLSVPEGAIVSLNCTYSNSAFQYFMWYRQYSRKGPELLMYTYSSGNKEDGRFTAQVDKSSKYISLFIRDSQPSDSATYLCAMGGGSNYKLTFGKGTLLTVNP
Vbeta: DSGVTQTPKHLITATGQRVTLRCSPRSGDLSVYWYQQSLDQGLQFLIQYYNGEERAKGNILERFSAQQFPDLHSELNLSSLELGDSALYFCASSPPGQTNYGYTFGSGTRLTVV
As to B2, the binding result in test [2] and in test [3] was “recognises” in each case.

B3: TCR14 (TCR, V domains shown)
Valpha: GQQLNQSPQSMFIQEGEDVSMNCTSSSIFNTWLWYKQDPGEGPVLLIALYKAGELTSNGRLTAQFGITRKDSFLNISASIPSDVGIYFCAGQGASGTYKYIFGTGTRLKVLA
Vbeta: DAGVIQSPRHEVTEMGQEVTLRCKPISGHNSLFWYRQTMMRGLELLIYFNNNVPIDDSGMPEDRFSAKMPNASFSTLKIQPSEPRDSAVYFCASSPGTSDEFFGPGTRLTVL
Turning to B3, the binding result in test [1] is on record as “recognises”.
